We go through 150 variants from paper PMC11480844 (2024).

First the molecules themselves.
B1: H2-Kb / Ed16-1 (parent complex)
chain 1: GEQVEQRPPHLSVREGDSAVITCTYTDPNSYYFFWYKQEPGASLQLLMKVFSSTEINEGQGFTVLLNKKDKRLSLNLTAAHPGDSAAYFCAVSGSNNRIFFGDGTQLVVKP
chain 2: EAAVTQSPRSKVAVTGGKVTLSCHQTNNHDYMYWYRQDTGHGLRLIHYSYVADSTEKGDIPDGYKASRPSQENFSLILELASLSQTAVYFCASRTGTDYTFGSGTRLLVI
chain 3: not shown
chain 4: IQKTPQIQVYSRHPPENGKPNILNCYVTQFHPPHIEIQMLKNGKKIPKVEMSDMSFSKDWSFYILAHTEFTPTETDTYACRVKHDSMAEPKTVYWDRDM
chain 5: SIINFEKL

The variants in this test derive from B1. As to the kind of experiment: % of reporter cells activated (NFAT-GFP), raw. Also: test concentration or dose not given here.
For chain 5 N4E, the ratio to parent came to 0.00277.

As for chain 5 N4M, the ratio to parent is 0.000769.

Turning to chain 5 N4K, the ratio to parent amounted to 0.211.

Regarding chain 5 N4T, the ratio to parent stood at 0.0307.

Regarding chain 5 N4G, the ratio to parent turned out to be 0.0463.

With chain 5 N4Y, the ratio to parent was found to be 0.021.

In the case of chain 5 N4A, the ratio to parent amounted to 0.124.

For the variant chain 5 N4L, the ratio to parent was found to be 0.617.

As to chain 5 N4P, the ratio to parent was determined as 0.0188.

Turning to chain 5 N4D, the ratio to parent was 0.0372.

For chain 5 N4R, the ratio to parent turned out to be 0.19.

On to chain 5 N4H, for which the ratio to parent was found to be 0.0158.

For the variant chain 5 N4S, the ratio to parent worked out at 0.492.

For the variant chain 5 N4V, the ratio to parent was 0.00138.

Take chain 5 N4W: the ratio to parent was determined as 0.0025.

Regarding chain 5 N4F, the ratio to parent amounted to 0.0302.

Consider chain 5 N4I, for which the ratio to parent was found to be 0.0165.

For the variant chain 5 N4Q, the ratio to parent came to 0.000537.

Regarding chain 5 N4C, the ratio to parent was 0.00253.

chain 5 S1Y: the ratio to parent is 0.419.

Take chain 5 S1K: the ratio to parent is 0.038.

chain 5 S1R: the ratio to parent worked out at 0.0909.

Turning to chain 5 S1F, the ratio to parent was 0.0013.

For the variant chain 5 S1M, the ratio to parent stood at 0.0059.

Consider chain 5 S1C, for which the ratio to parent turned out to be 0.0551.

As to chain 5 S1Q, the ratio to parent amounted to 0.0527.

On to chain 5 S1V, for which the ratio to parent was 0.0177.

Regarding chain 5 S1A, the ratio to parent was found to be 0.48.

chain 5 S1I: the ratio to parent came out at 0.00139.

Regarding chain 5 S1W, the ratio to parent came out at 0.0447.

Turning to chain 5 S1E, the ratio to parent was 0.0746.

As to chain 5 S1G, the ratio to parent is 0.521.

As to chain 5 S1L, the ratio to parent is 0.00107.

chain 5 S1T: the ratio to parent stood at 0.66.

Consider chain 5 S1P, for which the ratio to parent came to 0.00277.

Consider chain 5 S1N, for which the ratio to parent is 0.0326.

Take chain 5 S1H: the ratio to parent amounted to 0.199.

For chain 5 L8S, the ratio to parent is 0.941.

As to chain 5 L8Y, the ratio to parent worked out at 1.

On to chain 5 L8A, for which the ratio to parent stood at 1.01.

As for chain 5 L8C, the ratio to parent was 0.85.

Regarding chain 5 L8H, the ratio to parent worked out at 1.01.

As to chain 5 L8E, the ratio to parent came to 0.883.

Regarding chain 5 L8Q, the ratio to parent stood at 1.07.

chain 5 L8V: the ratio to parent was determined as 0.83.

With chain 5 L8P, the ratio to parent came out at 1.07.

Turning to chain 5 L8W, the ratio to parent amounted to 0.828.

As to chain 5 L8I, the ratio to parent was determined as 1.02.

Consider chain 5 L8R, for which the ratio to parent was determined as 0.935.

As to chain 5 L8M, the ratio to parent came to 1.03.

As for chain 5 L8N, the ratio to parent stood at 0.861.

As to chain 5 L8T, the ratio to parent stood at 0.968.

Take chain 5 L8G: the ratio to parent is 0.994.

On to chain 5 L8F, for which the ratio to parent came out at 0.952.

As for chain 5 L8D, the ratio to parent came to 0.834.

As to chain 5 K7D, the ratio to parent came to 0.979.

Consider chain 5 K7F, for which the ratio to parent stood at 0.632.

As to chain 5 K7L, the ratio to parent was determined as 0.832.

For the variant chain 5 K7V, the ratio to parent amounted to 0.771.

For the variant chain 5 K7I, the ratio to parent was 0.847.

With chain 5 K7R, the ratio to parent amounted to 1.09.

Consider chain 5 K7C, for which the ratio to parent was determined as 0.781.

For chain 5 K7E, the ratio to parent amounted to 0.559.

For the variant chain 5 K7G, the ratio to parent is 0.924.

For the variant chain 5 K7M, the ratio to parent turned out to be 0.848.

Turning to chain 5 K7H, the ratio to parent is 1.18.

chain 5 K7Y: the ratio to parent came to 1.04.

With chain 5 K7A, the ratio to parent was found to be 0.91.

Consider chain 5 K7W, for which the ratio to parent was determined as 0.776.

With chain 5 K7Q, the ratio to parent stood at 1.01.

Regarding chain 5 K7S, the ratio to parent worked out at 0.912.

Take chain 5 K7N: the ratio to parent is 0.903.

For the variant chain 5 K7P, the ratio to parent came out at 1.17.

For the variant chain 5 K7T, the ratio to parent came to 0.905.

Regarding chain 5 F5G, the ratio to parent was 0.516.

As for chain 5 F5W, the ratio to parent was 0.699.

chain 5 F5P: the ratio to parent turned out to be 0.181.

chain 5 F5T: the ratio to parent is 0.843.

Consider chain 5 F5S, for which the ratio to parent worked out at 0.917.

In the case of chain 5 F5N, the ratio to parent stood at 0.725.

chain 5 F5Y: the ratio to parent was 1.07.

For the variant chain 5 F5R, the ratio to parent worked out at 0.818.

chain 5 F5A: the ratio to parent came out at 0.976.

With chain 5 F5I, the ratio to parent was 0.96.

Consider chain 5 F5L, for which the ratio to parent came to 1.02.

Turning to chain 5 F5H, the ratio to parent was found to be 0.943.

Take chain 5 F5D: the ratio to parent stood at 0.823.

Turning to chain 5 F5Q, the ratio to parent was determined as 0.97.

As to chain 5 F5C, the ratio to parent was 0.943.

With chain 5 F5V, the ratio to parent was 0.848.

As to chain 5 F5E, the ratio to parent was found to be 0.742.

With chain 5 F5K, the ratio to parent came to 0.803.

Consider chain 5 F5M, for which the ratio to parent was 1.08.

Regarding chain 5 I3L, the ratio to parent is 0.889.

With chain 5 I3S, the ratio to parent amounted to 0.592.

For chain 5 I3E, the ratio to parent is 0.864.

In the case of chain 5 I3F, the ratio to parent came to 0.0814.

Take chain 5 I3W: the ratio to parent came to 0.744.

For chain 5 I3V, the ratio to parent was found to be 1.06.

On to chain 5 I3A, for which the ratio to parent stood at 0.883.

Turning to chain 5 I3H, the ratio to parent is 0.33.

Turning to chain 5 I3K, the ratio to parent was 0.521.

For chain 5 I3R, the ratio to parent stood at 0.301.

chain 5 I3C: the ratio to parent worked out at 0.777.

For chain 5 I3T, the ratio to parent worked out at 0.716.

Consider chain 5 I3Q, for which the ratio to parent turned out to be 0.605.

As to chain 5 I3P, the ratio to parent worked out at 0.865.

Turning to chain 5 I3N, the ratio to parent amounted to 0.755.

As for chain 5 I3G, the ratio to parent worked out at 0.473.

For the variant chain 5 I3D, the ratio to parent turned out to be 0.172.

Regarding chain 5 I3M, the ratio to parent stood at 0.842.

With chain 5 I3Y, the ratio to parent came to 0.00742.

As to chain 5 I2L, the ratio to parent stood at 1.08.

Turning to chain 5 I2N, the ratio to parent came to 0.607.

On to chain 5 I2A, for which the ratio to parent was found to be 1.01.

Consider chain 5 I2S, for which the ratio to parent came out at 0.94.

With chain 5 I2M, the ratio to parent stood at 1.06.

As for chain 5 I2Y, the ratio to parent was 0.597.

As to chain 5 I2F, the ratio to parent came to 0.849.

With chain 5 I2W, the ratio to parent is 0.749.

For chain 5 I2T, the ratio to parent turned out to be 0.926.

As to chain 5 I2G, the ratio to parent amounted to 1.04.

For the variant chain 5 I2V, the ratio to parent was determined as 1.1.

On to chain 5 I2R, for which the ratio to parent was 0.651.

Consider chain 5 I2Q, for which the ratio to parent is 0.713.

As to chain 5 I2P, the ratio to parent stood at 0.794.

Regarding chain 5 I2K, the ratio to parent stood at 0.743.

Consider chain 5 I2E, for which the ratio to parent amounted to 0.976.

Regarding chain 5 I2D, the ratio to parent was found to be 0.912.

chain 5 I2H: the ratio to parent was 0.627.

As to chain 5 I2C, the ratio to parent was 1.04.

Consider chain 5 E6M, for which the ratio to parent worked out at 0.219.

With chain 5 E6C, the ratio to parent is 0.00912.

As for chain 5 E6D, the ratio to parent turned out to be 0.371.

Regarding chain 5 E6N, the ratio to parent came out at 0.0535.

With chain 5 E6I, the ratio to parent was determined as 0.0059.

On to chain 5 E6R, for which the ratio to parent stood at 0.00877.

Take chain 5 E6Y: the ratio to parent stood at 0.106.

Regarding chain 5 E6F, the ratio to parent amounted to 0.153.

For chain 5 E6H, the ratio to parent is 0.0978.

With chain 5 E6T, the ratio to parent is 0.0356.

Regarding chain 5 E6P, the ratio to parent came out at 0.00132.

As for chain 5 E6V, the ratio to parent was 0.00707.

On to chain 5 E6S, for which the ratio to parent amounted to 0.0513.

For the variant chain 5 E6L, the ratio to parent amounted to 0.0059.

In the case of chain 5 E6G, the ratio to parent amounted to 0.187.

Turning to chain 5 E6W, the ratio to parent turned out to be 0.117.

For the variant chain 5 E6A, the ratio to parent came out at 0.0174.

Turning to chain 5 E6K, the ratio to parent amounted to 0.608.

As for chain 5 E6Q, the ratio to parent came to 0.187.
